The target in one data set is T1, HalA2.
T1 chain: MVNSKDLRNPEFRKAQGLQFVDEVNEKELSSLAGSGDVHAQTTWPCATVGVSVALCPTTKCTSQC

The target in another data set is T2, HalA1.
T2 chain: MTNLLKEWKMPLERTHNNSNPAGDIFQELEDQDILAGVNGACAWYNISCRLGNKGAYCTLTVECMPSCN

B1: HalM1 (protein)
chain: MRELQNALYFSEVVFGPNLEKIVGEKRLNFWLKLIGEDPENLKEFLSRKGNSFEEQTLPEKEAIVPNRLGEEALEKVREELEFLNTYSTKHVRRVKELGVQIPFEGILLPFISMYIEKFQQQQLRKKIGPIHEEIWTQIVQDITSKLNAILHRTLILELNVARVTSQLKGDTPEERFAYYSKTYLGKREVTHRLYSEYPVVLRLLFTTISHHISFITEILERVANDREAIETEFSPCSPIGTLASLHLNSGDAHHKQRTVTILEFSSSLKLVYKPRSLKVDGVFNGLLAFLNDRTGEVIKDQYCPKVLQRDGYGYVEFVTHQSCQSLEEVSDFYERLGSLMSLSYVLNSSDFHFENIIAHGPYPVLIDLETIIHNTADSSEETSTAMDRAFRMLNDSVLSTGMLPSSIYYRDQPNMKGLNVGGVSKSEGQKTPFKVNQIANRNTDEMRIEKDHVTLSSQKNLPIFQSAAMESVHFLDQIQKGFTSMYQWIEKNKQEFKEQVRKFEGVPVRAVLRSTTRYTELLKSSYHPDLLRSALDREVLLNRLTVDSVMTPYLKEIIPLEVEDLLNGDVPYFYTLPEERALYQEASAINSTFFTTSIFHKIDQKIDKLGIEDHTQQMKILHMSMLASNANHYADVADLDIQKGHTIKNEQYVEMAKDIGDYLMELSVEGENQGEPDLCWISTVLEGSSEIIWDISPVGEDLYNGSAGVALFYAYLFKITGEKRYQEIAYKALVPVRRSVAQFQHHPNWSIGAFNGASGYLYAMGTIAALFNDERLKHEVTRSIPHIEPMIHEDKIYDFIGGSAGALKVFLSLSGLFDEPKFLELAIACSEHLMKNAIKTDQGIGWKPPWEVTPLTGFSHGVSGVMASFIELYQQTGDERLLSYIDQSLAYERSFFSEQEENWLTPNKETPVVAWCHGAPGILVSRLLLKKCGYLDEKVEKEIEVALSTTIRKGLGNNRSLCHGDFGQLEILRFAAEVLGDSYLQEVVNNLSGELYNLFKTEGYQSGTSRGTESVGLMVGLSGFGYGLLSAAYPSAVPSILTLDGEIQKYREPHEANH
Take B1: the “dehydration of the peptide, MALDI-TOF MS” value in the data set with HalA2 is on record as “Incubation of HalA1 with HalM2 or HalA2 with HalM1 did not result in modified peptide in either case”. Further, in the data set with HalA1, the “dehydration of the peptide, MALDI-TOF MS” value is reported as “Incubation of HalA1 with HalM1 generated a species that was dehydrated 3-fold” and the “iodoacetamide alkylation of free cysteines after HalM modification (cyclization), MALDI-TOF MS” value is “The mass of HalA1 after modification by HalM1 was increased by 116 Da, consistent with the addition of two adducts”.

B2: HalM2 (protein)
chain: TPLTSEHPSVPTTLPHTNDTDWLEQLHDILSIPVTEEIQKYFHAENDLFSFFYTPFLQFTYQSMSDYFMTFKTDMALIERQSLLQSTLTAVHHRLFHLTHRTLISEMHIDKLTVGLNGSTPHERYMDFNHKFNKTSKSKNLFNIYPILGKLVVNETLRTINFVKKIIQHYMKDYLLLSDFFKEKDLRLTNLQLGVGDTHVNGQCVTILTFASGQKVVYKPRSLSIDKQFGEFIEWVNSKGFQPSLRIPIAIDRQTYGWYEFIPHQEATSEDEIERYYSRIGGYLAIAYLFGATDLHLDNLIACGEHPMLIDLETLFTNDLDCYDSAFPFPALARELTQSVFGTLMLPITIASGKLLDIDLSAVGGGKGVQSEKIKTWVIVNQKTDEMKLVEQPYVTESSQNKPTVNGKEANIGNYIPHVTDGFRKMYRLFLNEIDELMDHNGPIFAFESCQIRHVFRATHVYAKFLEASTHPDYLQEPTRRNKLFESFWNITSLMAPFKKIVPHEIAELENHDIPYFVLTCGGTIVKDGYGRDIADLFQSSCIERVTHRLQQLGSEDEARQIRYIKSSLATLTNGDWTPSHEKTPMSPASADREDGYFLREAQAIGDDILAQLIWEDDRHAAYLIGVSVGMNEAVTVSPLTPGIYDGTLGIVLFFDQLAQQTGETHYRHAADALLEGMFKQLKPELMPSSAYFGLGSLFYGLMVLGLQRSDSHIIQKAYEYLKHLEECVQHEETPDFVSGLSGVLYMLTKIYQLTNEPRVFEVAKTTASRLSVLLDSKQPDTVLTGLSHGAAGFALALLTYGTAANDEQLLKQGHSYLVYERNRFNKQENNWVDLRKGNAYQTFWCHGAPGIGISRLLLAQFYDDELLHEELNAALNKTISDGFGHNHSLCHGDFGNLDLLLLYAQYTNNPEPKELARKLAISSIDQAHTYGWKLGLNHSDQLQGMMLGVTGIGYQLLRHINPTVPSILALELPSSTLTEKELRIHDR
Turning to B2, in the data set with HalA2, the “dehydration of the peptide, MALDI-TOF MS” value is reported as “incubation of HalA2 with HalM2 generated a species that was dehydrated 7-fold” and the “iodoacetamide alkylation of free cysteines after HalM modification (cyclization), MALDI-TOF MS” value is listed as “The mass of HalA2 modified by HalM2 remained unchanged under the alkylation conditions tested, consistent with the absence of free Cys residues”. Moreover, the “dehydration of the peptide, MALDI-TOF MS” value in the data set with HalA1 is recorded as “Incubation of HalA1 with HalM2 or HalA2 with HalM1 did not result in modified peptide in either case”.

(Values after US20080242617.)
